The data set has as its system Escherichia coli TOP10. Kind of data set: shrunken log2 fold change of peptide-encoding DNA abundance (4.5 h post-induction vs induction); higher = less antimicrobial activity (less host growth inhibition). The note with it: time post-induction: 4.5 h; library: site-saturation at positions 5, 18, 19, 20.
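Note: peptides expressed intracellularly from a pBAD plasmid library in pooled LB shake-flask culture, induced with 0.3% L-arabinose, DNA abundance read by NGS, three biological replicates, DESeq2 with apeglm shrinkage.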

For the sequence RRIRKRPPRLPRPRPRPHLPPRP, the “shrunken log2 fold change” value was 0.0692.

Consider RRIRSRPPRLPRPRPRPPDPPRP, for which the “shrunken log2 fold change” value was 0.472.

Regarding RRIRPRPPRLPRPRPRPLYPPRP, the “shrunken log2 fold change” value is -0.244.

As to RRIRWRPPRLPRPRPRPLYHPRP, the “shrunken log2 fold change” value was -0.307.

As for RRIRTRPPRLPRPRPRPEGQPRP, the “shrunken log2 fold change” value was 0.0344.

For the sequence RRIRNRPPRLPRPRPRPQKSPRP, the “shrunken log2 fold change” value is -0.101.

Consider RRIRDRPPRLPRPRPRPLKMPRP, for which the “shrunken log2 fold change” value came out at 0.122.

As to RRIRKRPPRLPRPRPRPHGFPRP, the “shrunken log2 fold change” value came to 0.056.

Consider RRIRDRPPRLPRPRPRPYEMPRP, for which the “shrunken log2 fold change” value was -0.000896.

With RRIRQRPPRLPRPRPRPATKPRP, the “shrunken log2 fold change” value amounted to 0.154.

On to RRIRHRPPRLPRPRPRPYCIPRP, for which the “shrunken log2 fold change” value is -0.21.

On to RRIRMRPPRLPRPRPRPLFCPRP, for which the “shrunken log2 fold change” value was found to be 0.188.

Take RRIRTRPPRLPRPRPRPMFYPRP: the “shrunken log2 fold change” value is -0.359.

In the case of RRIRRRPPRLPRPRPRPECCPRP, the “shrunken log2 fold change” value came out at 0.566.

Turning to RRIRDRPPRLPRPRPRPFSKPRP, the “shrunken log2 fold change” value was -0.488.

Regarding RRIRARPPRLPRPRPRPGPRPRP, the “shrunken log2 fold change” value was 1.22.

In the case of RRIRFRPPRLPRPRPRPYAAPRP, the “shrunken log2 fold change” value was -0.586.

Regarding RRIRYRPPRLPRPRPRPYMGPRP, the “shrunken log2 fold change” value was -0.019.

Regarding RRIRPRPPRLPRPRPRPANMPRP, the “shrunken log2 fold change” value is -0.219.

As to RRIRCRPPRLPRPRPRPPSDPRP, the “shrunken log2 fold change” value turned out to be 0.213.

In the case of RRIRSRPPRLPRPRPRPAMPPRP, the “shrunken log2 fold change” value came out at 0.206.

RRIRKRPPRLPRPRPRPLMMPRP: the “shrunken log2 fold change” value came out at 0.207.

Consider RRIRVRPPRLPRPRPRPMRHPRP, for which the “shrunken log2 fold change” value was -0.00914.

Consider RRIRKRPPRLPRPRPRPSSVPRP, for which the “shrunken log2 fold change” value was -0.378.

With RRIRMRPPRLPRPRPRPGGWPRP, the “shrunken log2 fold change” value is 1.32.

With RRIRTRPPRLPRPRPRPALKPRP, the “shrunken log2 fold change” value came out at 0.206.

As to RRIRTRPPRLPRPRPRPGMNPRP, the “shrunken log2 fold change” value is -0.15.

As for RRIRTRPPRLPRPRPRPMDLPRP, the “shrunken log2 fold change” value was -0.0399.

For RRIRMRPPRLPRPRPRPFRTPRP, the “shrunken log2 fold change” value is -0.21.

RRIRYRPPRLPRPRPRPVQFPRP: the “shrunken log2 fold change” value is -0.00142.

For RRIRQRPPRLPRPRPRPQIFPRP, the “shrunken log2 fold change” value is -0.0511.

For the sequence RRIRARPPRLPRPRPRPHWVPRP, the “shrunken log2 fold change” value amounted to 0.0153.

As for RRIRERPPRLPRPRPRPIRLPRP, the “shrunken log2 fold change” value is -0.0614.

For RRIRKRPPRLPRPRPRPKYSPRP, the “shrunken log2 fold change” value was -0.13.

As for RRIRPRPPRLPRPRPRPIMNPRP, the “shrunken log2 fold change” value is -0.799.

For RRIRARPPRLPRPRPRPDDIPRP, the “shrunken log2 fold change” value turned out to be 0.0386.

Regarding RRIRDRPPRLPRPRPRPSNQPRP, the “shrunken log2 fold change” value is -0.315.

Take RRIRYRPPRLPRPRPRPERPPRP: the “shrunken log2 fold change” value is 0.232.

As for RRIRDRPPRLPRPRPRPPFEPRP, the “shrunken log2 fold change” value was 0.254.

For RRIRERPPRLPRPRPRPAWIPRP, the “shrunken log2 fold change” value was found to be 0.121.

With RRIRLRPPRLPRPRPRPLGRPRP, the “shrunken log2 fold change” value was found to be 0.0726.

On to RRIRMRPPRLPRPRPRPWILPRP, for which the “shrunken log2 fold change” value was -0.201.

Regarding RRIRMRPPRLPRPRPRPFREPRP, the “shrunken log2 fold change” value is 0.2.

As for RRIRTRPPRLPRPRPRPFLHPRP, the “shrunken log2 fold change” value is -0.524.

Regarding RRIRKRPPRLPRPRPRPGTQPRP, the “shrunken log2 fold change” value was 0.114.

Take RRIRHRPPRLPRPRPRPQKAPRP: the “shrunken log2 fold change” value was -0.0296.

With RRIRNRPPRLPRPRPRPNICPRP, the “shrunken log2 fold change” value was -0.0714.

For the sequence RRIRQRPPRLPRPRPRPKHTPRP, the “shrunken log2 fold change” value was -0.224.

RRIRERPPRLPRPRPRPIAVPRP: the “shrunken log2 fold change” value was determined as 0.0116.

In the case of RRIRNRPPRLPRPRPRPREVPRP, the “shrunken log2 fold change” value amounted to 0.00782.

Consider RRIRHRPPRLPRPRPRPTETPRP, for which the “shrunken log2 fold change” value amounted to 0.146.

On to RRIRWRPPRLPRPRPRPHMPPRP, for which the “shrunken log2 fold change” value is -0.768.

As to RRIRKRPPRLPRPRPRPMTDPRP, the “shrunken log2 fold change” value was 0.103.

With RRIRLRPPRLPRPRPRPMASPRP, the “shrunken log2 fold change” value stood at 0.0148.

Take RRIRVRPPRLPRPRPRPRMEPRP: the “shrunken log2 fold change” value was 0.413.

As to RRIRWRPPRLPRPRPRPSTDPRP, the “shrunken log2 fold change” value came to 0.0398.

Regarding RRIRARPPRLPRPRPRPSITPRP, the “shrunken log2 fold change” value stood at 0.107.

Take RRIRYRPPRLPRPRPRPPMTPRP: the “shrunken log2 fold change” value is -0.456.

For the sequence RRIRLRPPRLPRPRPRPQWVPRP, the “shrunken log2 fold change” value is -0.0367.

In the case of RRIRWRPPRLPRPRPRPEWTPRP, the “shrunken log2 fold change” value came out at 0.0673.

RRIRPRPPRLPRPRPRPIHYPRP: the “shrunken log2 fold change” value was -0.967.

Turning to RRIRVRPPRLPRPRPRPGYFPRP, the “shrunken log2 fold change” value is -0.366.

Take RRIRARPPRLPRPRPRPPDFPRP: the “shrunken log2 fold change” value was 0.708.

Turning to RRIRMRPPRLPRPRPRPLMPPRP, the “shrunken log2 fold change” value came out at 0.13.

On to RRIRMRPPRLPRPRPRPKHWPRP, for which the “shrunken log2 fold change” value worked out at 0.91.

Turning to RRIRTRPPRLPRPRPRPTYPPRP, the “shrunken log2 fold change” value worked out at 0.0247.

As for RRIRHRPPRLPRPRPRPKKFPRP, the “shrunken log2 fold change” value is -0.123.

For RRIRDRPPRLPRPRPRPHVYPRP, the “shrunken log2 fold change” value was -0.0179.

RRIRIRPPRLPRPRPRPTFCPRP: the “shrunken log2 fold change” value was -0.02.

As to RRIRLRPPRLPRPRPRPYCIPRP, the “shrunken log2 fold change” value is -0.121.

In the case of RRIRVRPPRLPRPRPRPIKSPRP, the “shrunken log2 fold change” value was -0.184.

For RRIRRRPPRLPRPRPRPSVFPRP, the “shrunken log2 fold change” value was 0.141.

On to RRIRKRPPRLPRPRPRPVAAPRP, for which the “shrunken log2 fold change” value turned out to be 0.721.

Turning to RRIRARPPRLPRPRPRPKRVPRP, the “shrunken log2 fold change” value was 0.455.

For the sequence RRIRKRPPRLPRPRPRPCYLPRP, the “shrunken log2 fold change” value is -0.427.

Regarding RRIRPRPPRLPRPRPRPRPQPRP, the “shrunken log2 fold change” value is 0.634.

Regarding RRIRGRPPRLPRPRPRPENNPRP, the “shrunken log2 fold change” value amounted to 0.502.

With RRIRWRPPRLPRPRPRPYDRPRP, the “shrunken log2 fold change” value came to 0.0155.

With RRIRPRPPRLPRPRPRPYYEPRP, the “shrunken log2 fold change” value was -0.321.

On to RRIRRRPPRLPRPRPRPTPLPRP, for which the “shrunken log2 fold change” value was found to be 0.744.

For the sequence RRIRCRPPRLPRPRPRPTVNPRP, the “shrunken log2 fold change” value is -0.184.

As for RRIRWRPPRLPRPRPRPSTEPRP, the “shrunken log2 fold change” value amounted to 0.0764.

On to RRIRQRPPRLPRPRPRPLMKPRP, for which the “shrunken log2 fold change” value is 0.158.

In the case of RRIRYRPPRLPRPRPRPQTHPRP, the “shrunken log2 fold change” value was -1.08.

As to RRIRPRPPRLPRPRPRPWCAPRP, the “shrunken log2 fold change” value amounted to 0.208.

For the sequence RRIRQRPPRLPRPRPRPIPVPRP, the “shrunken log2 fold change” value is -0.221.

As to RRIRYRPPRLPRPRPRPTLLPRP, the “shrunken log2 fold change” value was -0.703.

As for RRIRWRPPRLPRPRPRPHPCPRP, the “shrunken log2 fold change” value was determined as 0.12.

For the sequence RRIRARPPRLPRPRPRPWTSPRP, the “shrunken log2 fold change” value was -0.064.

Take RRIRFRPPRLPRPRPRPNYGPRP: the “shrunken log2 fold change” value was -0.125.

On to RRIRLRPPRLPRPRPRPGCTPRP, for which the “shrunken log2 fold change” value was -0.151.

Take RRIRGRPPRLPRPRPRPCQQPRP: the “shrunken log2 fold change” value came out at 0.0696.

RRIRMRPPRLPRPRPRPIKYPRP: the “shrunken log2 fold change” value is 0.188.

Turning to RRIRRRPPRLPRPRPRPAFWPRP, the “shrunken log2 fold change” value worked out at 0.547.

For RRIRDRPPRLPRPRPRPNGTPRP, the “shrunken log2 fold change” value is 0.00868.

As for RRIRIRPPRLPRPRPRPCIYPRP, the “shrunken log2 fold change” value is -0.0179.

RRIRVRPPRLPRPRPRPRSTPRP: the “shrunken log2 fold change” value came to 0.0765.

As to RRIRWRPPRLPRPRPRPASRPRP, the “shrunken log2 fold change” value is -0.00682.

For RRIRVRPPRLPRPRPRPELVPRP, the “shrunken log2 fold change” value amounted to 0.14.

For the sequence RRIRGRPPRLPRPRPRPWPPPRP, the “shrunken log2 fold change” value came out at 0.663.

With RRIRLRPPRLPRPRPRPCMGPRP, the “shrunken log2 fold change” value was -0.085.

In the case of RRIRSRPPRLPRPRPRPGTCPRP, the “shrunken log2 fold change” value turned out to be 0.148.

Consider RRIRLRPPRLPRPRPRPARRPRP, for which the “shrunken log2 fold change” value worked out at 0.348.

As to RRIRWRPPRLPRPRPRPSPVPRP, the “shrunken log2 fold change” value is -0.0363.

On to RRIRVRPPRLPRPRPRPMEWPRP, for which the “shrunken log2 fold change” value is -0.125.

Take RRIRQRPPRLPRPRPRPPGRPRP: the “shrunken log2 fold change” value is 0.853.

As for RRIRVRPPRLPRPRPRPEPQPRP, the “shrunken log2 fold change” value came out at 0.363.

RRIRDRPPRLPRPRPRPEKEPRP: the “shrunken log2 fold change” value is 0.127.

Regarding RRIRWRPPRLPRPRPRPLIYPRP, the “shrunken log2 fold change” value was -0.299.

For the sequence RRIRERPPRLPRPRPRPCGKPRP, the “shrunken log2 fold change” value is -0.00192.

On to RRIRDRPPRLPRPRPRPGEHPRP, for which the “shrunken log2 fold change” value was 0.0372.

RRIRCRPPRLPRPRPRPPEWPRP: the “shrunken log2 fold change” value turned out to be 0.575.

Consider RRIRTRPPRLPRPRPRPQCPPRP, for which the “shrunken log2 fold change” value is -0.125.

As to RRIRSRPPRLPRPRPRPKCMPRP, the “shrunken log2 fold change” value was -0.218.

For RRIRGRPPRLPRPRPRPPNPPRP, the “shrunken log2 fold change” value was found to be 0.74.

As for RRIRQRPPRLPRPRPRPINVPRP, the “shrunken log2 fold change” value is -0.0732.

Consider RRIRMRPPRLPRPRPRPSACPRP, for which the “shrunken log2 fold change” value amounted to 1.99.

For the sequence RRIRERPPRLPRPRPRPQSSPRP, the “shrunken log2 fold change” value was -0.533.

Take RRIRWRPPRLPRPRPRPDYCPRP: the “shrunken log2 fold change” value is -0.0321.

Turning to RRIRCRPPRLPRPRPRPNKQPRP, the “shrunken log2 fold change” value is -0.201.

Take RRIRERPPRLPRPRPRPYIYPRP: the “shrunken log2 fold change” value is -0.254.

As to RRIRCRPPRLPRPRPRPWIRPRP, the “shrunken log2 fold change” value was -0.374.

As to RRIRRRPPRLPRPRPRPGVVPRP, the “shrunken log2 fold change” value came to 0.281.

For the sequence RRIRVRPPRLPRPRPRPQLNPRP, the “shrunken log2 fold change” value is -0.292.

As to RRIRVRPPRLPRPRPRPPPFPRP, the “shrunken log2 fold change” value came out at 0.375.

These data come from the supplement of paper PMC9112550, “Optimization of the antimicrobial peptide Bac7 by deep mutational scanning” (BMC Biology, 2022).
